The source of these data is paper PMC5405039, “Genome-wide identification of grain filling genes regulated by the OsSMF1 transcription factor in rice”.

T1: OsSMF1 (RISBZ1, OsbZIP58)-DsRed fusion (Oryza sativa cv. Ilmi, UniProt Q6ZLB0 1-436)
T1 sequence: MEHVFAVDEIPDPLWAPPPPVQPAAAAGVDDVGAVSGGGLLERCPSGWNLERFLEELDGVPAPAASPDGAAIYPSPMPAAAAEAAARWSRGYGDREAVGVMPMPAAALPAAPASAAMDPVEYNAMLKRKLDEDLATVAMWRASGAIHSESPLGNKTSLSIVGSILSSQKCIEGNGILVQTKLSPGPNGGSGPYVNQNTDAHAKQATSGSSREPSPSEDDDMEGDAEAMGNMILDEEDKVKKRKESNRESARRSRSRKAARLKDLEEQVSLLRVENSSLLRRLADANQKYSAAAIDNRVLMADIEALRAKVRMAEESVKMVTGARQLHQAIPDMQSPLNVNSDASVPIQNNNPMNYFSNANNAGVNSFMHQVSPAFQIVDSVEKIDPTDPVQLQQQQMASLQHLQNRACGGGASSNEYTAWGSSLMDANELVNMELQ

B1: ATGA 21-bp wild type (dsDNA)
DNA 1: CTGATTCGGATGACGGACGAA
DNA 2: TTCGTCCGTCATCCGAATCAG
B2: ACGT 21-bp wild type (dsDNA)
DNA 1: AAGCGCCACGTCAGCCAAAAC
DNA 2: GTTTTGGCTGACGTGGCGCTT
B3: GCN4 21-bp wild type (dsDNA)
DNA 1: GTTTGTCATGGCTGAGTCATG
DNA 2: CATGACTCAGCCATGACAAAC

For this series, the target named is T1, OsSMF1 (RISBZ1, OsbZIP58)-DsRed fusion. The series is described as follows: EMSA (SYBR Gold); 5 mM MgCl2; Kd EMSA: 10 mM Tris, 50 mM KCl, 1 mM DTT pH 7.5, 50 ng/ul poly(dI-dC), 2.5% glycerol, 0.05% NP-40, 5 mM MgCl2, 0.2 ug/ul OsSMF1, DNA 0-6 uM, 1 h room temperatur. The note with it: protein: recombinant; tags: DsRed fusion; Ni-NTA purified; chain copies: 2; SYBR Gold stain (Kd); 21 bp. Background: A gel shift assay detects complexes by their altered migration in electrophoresis.
As for B1, the equilibrium dissociation constant (Kd) was 1120 nM.

Take B2: the equilibrium dissociation constant (Kd) was 335 nM.

On to B3, for which the dissociation constant (Kd) was 646 nM.

For orientation: Kd means a measure of binding affinity in units of concentration.
